Source: PMC4316792, “The dehydrogenase region of the NADPH oxidase component Nox2 acts as a protein disulfide isomerase (PDI) resembling PDIA3 with a role in the binding of the activator protein p67^phox” (Frontiers in Chemistry, 2015)
Numbering of substitutions follows the chain as printed. Entries after “also recorded” stand apart in the source; their conditions may differ. Bridges are numbered along the chain shown (N, C = ends). The star is where a group is joined. Biotin = O=C1N[C@H]2[C@H](CS[C@H]2CCCCC(=O)*)N1

Assays:
[1] = molecular target: NusA-Nox2(357–570) (human) (UniProt P04839); test: SEC; FPLC gel filtration on HiLoad 16/60 Superdex 200 prep grade; separated a polymeric fraction from a homodimer fraction
PDI = settings: disulfide form; ref Kersteen and Raines, [2003]; Wang et al., [2011]; cited from earlier work
Excerpt: Based on the resemblance of the CXC motif with the CXXC motif characteristic of the catalytic motifs of PDI and thioredoxin, we synthesized analogs of Nox2 peptide 24 ([…]) in which the CGC sequen ...

p67^phox(1–526) [2] = test: Effect of thiol reagents on binding of p67phox(1–526) to Nox2 peptide 24; settings: 1 h room temperature
NADPH oxidase = tested on: NADPH oxidase; design: method as in 8 sources, one per row (each row's own in cited_ref): ref Shpungin et al., [1989] ||| ref Bellavite et al., [1983]; Gabig and Lefker, [1984] ||| ref Pick et al., [1987] ||| ref Le Cabec and Maridonneau-Parini, [1995] ||| ref Nishida et al., [2005] ||| ...; settings: acts on a membrane component; ref Shpungin et al., [1989]; cited from earlier work
[3] = tested on: NADPH oxidase in intact phagocytes / neutrophils; design: method as in 3 sources, one per row (each row's own in cited_ref): ref Cohen and Chovaniec, [1978]; Yamashita et al., [1984] ||| ref Le Cabec and Maridonneau-Parini, [1995] ||| ref Tsunawaki et al., [2004]; settings: added before activation; ref Cohen and Chovaniec, [1978]; Yamashita et al., [1984]; cited from earlier work
p67^phox(1–526) [4] = molecular target: T1, p67^phox(1–526) (UniProt P19878 1-526); test: ELISA; peptide—protein binding of p67^phox to Nox2 peptide 28, told in the results without a figure (the introduction gives manuscripts in preparation); settings: both partners purified
T1 construct: construct as in Mizrahi et al., 2010; also called full-length p67^phox; 6His-p67^phox; source: E. coli, purified (Nickel Sepharose); not shown: 6His, N-terminal, kept
T1 sequence (looked up): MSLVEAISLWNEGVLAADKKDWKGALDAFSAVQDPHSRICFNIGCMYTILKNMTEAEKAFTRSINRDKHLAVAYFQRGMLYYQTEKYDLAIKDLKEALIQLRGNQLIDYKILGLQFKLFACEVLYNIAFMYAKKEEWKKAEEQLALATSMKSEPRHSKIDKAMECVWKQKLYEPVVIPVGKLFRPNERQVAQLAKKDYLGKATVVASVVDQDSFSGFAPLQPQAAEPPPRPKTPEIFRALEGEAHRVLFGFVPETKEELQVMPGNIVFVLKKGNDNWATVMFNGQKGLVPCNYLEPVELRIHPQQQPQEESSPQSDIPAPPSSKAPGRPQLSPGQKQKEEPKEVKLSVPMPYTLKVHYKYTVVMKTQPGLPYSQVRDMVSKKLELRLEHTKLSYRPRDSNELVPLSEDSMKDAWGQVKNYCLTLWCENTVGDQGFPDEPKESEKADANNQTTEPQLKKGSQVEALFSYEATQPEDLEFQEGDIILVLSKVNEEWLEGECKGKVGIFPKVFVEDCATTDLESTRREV

p67^phox(1–212) [5] = molecular target: T2, p67^phox(1–212) (UniProt P19878 1-212); test: as above; settings: both partners purified
T2 construct: contains four cysteines (40, 45, 121, 165); source: E. coli, purified (Nickel Sepharose); not shown: 6His, N-terminal, kept
T2 sequence (looked up): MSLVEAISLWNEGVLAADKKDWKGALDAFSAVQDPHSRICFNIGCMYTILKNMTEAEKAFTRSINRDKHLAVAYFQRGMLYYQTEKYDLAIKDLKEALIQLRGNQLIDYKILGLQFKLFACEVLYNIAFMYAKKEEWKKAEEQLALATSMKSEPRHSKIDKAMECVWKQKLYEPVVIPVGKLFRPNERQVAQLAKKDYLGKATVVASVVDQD

[6] = tested on: Nox2 peptide 24 (357–371); test: Peptide–protein binding assay, wild type and Cys to Ser mutant p67phox(1–212) to Nox2 peptide 24; settings: 3 experiments (Figure 12); for binding to Nox2 peptide 24 in the disulfide form: 24N CGC S-S; for binding to Nox2 peptide 24 in the dithiol (reduced) form: 24N CGC
[7] = molecular target: T3, NADPH oxidase (macrophage membrane liposomes, cytochrome b558) (Cavia porcellus, UniProt H0UXC6); test: Cell-free NADPH oxidase activation, amphiphile- and p47phox-independent; assay type: biochemical, guinea pig; settings: equal concentrations of p67phox and prenylated Rac1 Q61L 50–600 nM, 5 nM cytochrome b558 heme, 5 min (Figure 13B), read-out: EC50, support of NADPH oxidase activation
[8] = Binding of thiol reagent mBBr to p67phox(1–212); settings: results not shown
p67^phox(1–212) [9] = test: Protein–protein binding assay, p67phox(1–212)
[10] = molecular target: T3, NADPH oxidase (macrophage membrane liposomes, cytochrome b558); test: Cell-free NADPH oxidase activation, amphiphile- and p47phox-dependent; assay type: biochemical, guinea pig; settings: for EC50: equal concentrations of p67phox, p47phox and Rac1 Q61L 10–200 nM, LiDS 120 μM, 5 nM cytochrome b558 heme, 90 s (Figure 13A), read-out: EC50, support of NADPH oxidase activation
[11] = PDI reductase activity, DE-GSSG reduction; assay type: biochemical; settings: for Vmax, PDI reductase activity (Figure 6B): DTT only 5,124
oxidized insulin = test: Insulin reduction (turbidimetric) assay; assay type: biochemical; settings: up to 5 μM
p67^phox(1–526) [12] = test: Protein–protein binding assay, p67phox(1–526); settings: homodimers, 0.5 μM, p67phox coated at 0.5 μM; one characteristic experiment (Figure 5A)

For “NusA-Nox2(357–570) (from UniProt P04839 357-570) (domain or fragment)”, which stoichiometry N [1] is on record?
Its stoichiometry N is 2.

For RKCGC (disulfide) [small peptide RKCGC], which “mimicry of the actions of PDI protein” value (PDI) is on record?
Its value is “can mimic the actions of PDI protein”.

For CCN1C(=O)C=CC1=O [NEM, N-ethylmaleimide], which “effect of pretreatment of p67phox on low affinity binding to native form of peptide 24” value (p67^phox(1–526) [2]; NEM 0.1 mM or diamide 5 mM, three experiments (Figure 2A,B)) is on record?
The value was “suppressed”.

What about the “effect of NEM pretreatment of p67phox on binding to peptide 24 in the disulfide form” value (p67^phox(1–526) [2]; p67^phox(1–526) 1.5 μM, NEM 0.1 mM, three experiments (Figure 2A)) of the same molecule?
Its value is “totally abolished”.

And the “inhibition of oxidase activation in vitro” value (NADPH oxidase)?
Its value is “inhibited”.

And the “inhibition of oxidase activation in intact phagocytes” value [3]?
The value was “inhibited”.

B1: Nox2 peptide 28 (369–383) with an intramolecular disulfide bond linking cysteines 369 and 371 (peptide)
peptide: Biotin-SGSGCGCDKQEFQDAWKLP-NH2
modifications: disulfide 5-7
SMILES: CC(C)C[C@H](NC(=O)[C@H](CCCCN)NC(=O)[C@H](Cc1c[nH]c2ccccc12)NC(=O)[C@H](C)NC(=O)[C@H](CC(=O)O)NC(=O)[C@H](CCC(N)=O)NC(=O)[C@H](Cc1ccccc1)NC(=O)[C@H](CCC(=O)O)NC(=O)[C@H](CCC(N)=O)NC(=O)[C@H](CCCCN)NC(=O)[C@H](CC(=O)O)NC(=O)[C@@H]1CSSC[C@H](NC(=O)CNC(=O)[C@H](CO)NC(=O)CNC(=O)[C@H](CO)NC(=O)CCCC[C@@H]2SC[C@@H]3NC(=O)N[C@@H]32)C(=O)NCC(=O)N1)C(=O)N1CCC[C@H]1C(N)=O
notes: spacer between the N-terminal biotin and the peptide, printed as Ser-Gly-Ser-Gly; also called peptide 28, disulfide form; source: synthetic peptide (Mimotopes or Bachem); not shown: biotin, N-terminal, kept
Does B1 bind (p67^phox(1–526) [4])?
Result: binds

Does B1 bind (p67^phox(1–212) [5])?
Result: binds

B2: p67^phox(1–212): wild-type recombinant p67phox residues 1–212 (protein)
chain: T2 sequence (looked up)
modifications: left off: 6His, N-terminal, kept
Which “binding to Nox2 peptide 24 in the disulfide form” value [6] does the source give for B2 here?
The value was “much enhanced binding”.

And the “binding to Nox2 peptide 24 in the dithiol (reduced) form” value [6]?
The value was “moderate binding”.

And the EC50 [7]?
The EC50 was 224 nM.

What about the “binding of mBBr” value [8] of the same molecule?
Its value is “bound mBBr”.

What about the “binding of NusA-Nox2 to p67phox(1–212) relative to p67phox(1–526)” value (p67^phox(1–212) [9]; Figure 5A,B) of the same molecule?
Its value is “exceeded”.

And the EC50 [10]?
Its EC50 is 57.2 nM.

B3: Mutant p67^phox: recombinant p67phox(1–212) in which cysteines 40, 45, 121, and 165 were mutated to serine (protein)
chain: T2 sequence (looked up) with C40S, C45S, C121S, C165S
modifications: left off: 6His, N-terminal, kept
notes: recombinant p67phox(1–212) in which cysteines 40, 45, 121, and 165 were mutated to serine
Which results are given for B3?
binding to Nox2 peptide 24 in the disulfide form ([6]; listed as mutant protein): markedly reduced; binding to Nox2 peptide 24 in the dithiol (reduced) form ([6]; listed as mutant protein): lacked binding ability; also recorded: markedly reduced; EC50 [7]: 405 nM; binding of mBBr [8]: did not; increase in EC50 versus wild-type [10]: two-fold; EC50 [10]: 114 nM

B4: NusA-Nox2(357–570): fusion protein of NusA and Nox2 residues 357–570, contains the CGC triad (protein)
chain: IVGDWTEGLFNACGCDKQEFQDAWKLPKIAVDGPFGTASEDVFSYEVVMLVGAGIGVTPFASILKSVWYKYCNNATNLKLKKIYFYWLCRDTHAFEWFADLLQLLESQMQERNNAGFLSYNIYLTGWDESQANHFAVHHDEEKDVITGLKQKTLYGRPNWDNEFKTIASQHPNTRIGVFLCGPEALAETLSKQSISNSESGPRGVHFIFNKENF
modifications: left off: NusA (E. coli), N-terminal, kept | His tag (from the purification on Nickel Sepharose), end not stated, state not stated
notes: fusion protein of NusA and Nox2 residues 357–570, contains the CGC triad
Which results are given for B4?
Vmax, PDI reductase activity (Figure 7A) ([11]; 1 μM, DE-GSSG 0.8 μM, DTT 12.5 μM, pH 7.0, 24°C, mean ± SEM of 9 experiments): 49,164 ± 2271; Vmax, PDI reductase activity (Figure 6B) ([11]; 1 μM, DE-GSSG 800 nM, DTT 12.5 μM, one characteristic experiment): 41,130 milli relative fluorescence units per min; PDI activity compared with DTT alone ([11]; 2 μM (Figure 6A)): marked excess; Vmax, PDI reductase activity (Figure 6B) ([11]; 2 μM, DE-GSSG 800 nM, DTT 12.5 μM, one characteristic experiment): 62,074 milli relative fluorescence units per min; Vmax, PDI reductase activity in the absence of PAO (Figure 6D) ([11]; 2 μM, DE-GSSG 800 nM, DTT 12.5 μM, one characteristic experiment, DTT only 8,254): 40,306 milli relative fluorescence units per min; Vmax, PDI reductase activity (Figure 6C) ([11]; 2 μM, DE-GSSG 800 nM, DTT 12.5 μM, one characteristic experiment, DTT only 26,248): 127,476 milli relative fluorescence units per min; Vmax, PDI reductase activity (Figure 6B) ([11]; 3 μM, DE-GSSG 800 nM, DTT 12.5 μM, one characteristic experiment): 73,736 milli relative fluorescence units per min; Vmax, PDI reductase activity (Figure 6B) ([11]; 4 μM, DE-GSSG 800 nM, DTT 12.5 μM, one characteristic experiment): 86,162 milli relative fluorescence units per min; dose dependency of reductase activity ([11]; 1–4 μM (Figure 6B)): clear dose dependency; Vmax, PDI reductase activity (Figure 6A) ([11]; NusA-Nox2(357–570) 2 μM, DE-GSSG 800 nM, DTT 12.5 μM, pH 7.0, 24°C, 30 min, DTT only 7,108 and 9,423): 52,312 ± 1,380 milli relative fluorescence units per min; insulin reductase activity (oxidized insulin): no activity could be detected; binding of NusA-Nox2 to p67phox(1–526) (p67^phox(1–526) [12]): significant binding; binding of NusA-Nox2 to p67phox(1–212) (p67^phox(1–212) [9]; homodimers, 0.5 μM, p67phox coated at 0.5 μM, one characteristic experiment (Figure 5B)): significant binding
